Measurements reported in IntAct's records for PubMed 16002700.

B1: Natural killer cell receptor 2B4 (Homo sapiens), Q9BZW8 (parent)
chain: MLGQVVTLILLLLLKVYQGKGCQGSADHVVSISGVPLQLQPNSIQTKVDSIAWKKLLPSQNGFHHILKWENGSLPSNTSNDRFSFIVKNLSLLIKAAQQQDSGLYCLEVTSISGKVQTATFQVFVFESLLPDKVEKPRLQGQGKILDRGRCQVALSCLVSRDGNVSYAWYRGSKLIQTAGNLTYLDEEVDINGTHTYTCNVSNPVSWESHTLNLTQDCQNAHQEFRFWPFLVIIVILSALFLGTLACFCVWRRKRKEKQSETSPKEFLTIYEDVKDLKTRRNHEQEQTFPGGGSTIYSMIQSQSSAPTSQEPAYTLYSLIQPSRKSGSRKRNHSPSFNSTIYEVIGKSQPKAQNPARLSRKELENFDVYS

Variants of: B1
Conditions: with cd48_human CD48, P09326
cd48_human CD48, P09326, sequence (P09326 whole entry): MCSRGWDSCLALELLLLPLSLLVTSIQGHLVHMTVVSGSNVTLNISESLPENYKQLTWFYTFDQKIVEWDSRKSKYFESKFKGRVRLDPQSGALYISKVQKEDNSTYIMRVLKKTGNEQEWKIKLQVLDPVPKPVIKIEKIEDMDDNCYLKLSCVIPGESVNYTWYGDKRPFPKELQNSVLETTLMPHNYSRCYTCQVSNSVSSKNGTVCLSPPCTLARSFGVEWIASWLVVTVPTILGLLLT

| effect of a mutation on the interaction | Variant |
| --- | --- |
| decreasing interaction | K68A |
| disrupting interaction | K68A;E70A |
| decreasing interaction | E70A |
